Test results taken from the supplement of paper PMC12042874.
± gives the uncertainty stated by the source.

Assay: amyloid nucleation score (Sup35N fusion, yeast selection) (log enrichment); library NNK2; higher = more nucleation; inactive = no reads after selection
Method in brief: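 Sup35N was fused to peptides of 20 random codons and expressed in psi-negative yeast, which were induced with 100 μM copper sulfate for 24 hours and then grown on medium lacking adenine and uracil for 7 days at 30°C. Plasmid inserts from input and output were sequenced on Illumina. The nucleation score is the DiMSum log enrichment of output over input reads, centred on the mode score of non-aggregating sequences. Sequences with under 100 input reads were left out, and random libraries had three technical output replicates.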

| Substance | amyloid nucleation score |
| --- | --- |
| LKTLIKDPMLYGQALSRVFC | -0.737 ± 1.1 |
| RKLIYSICKYVFALSVTIVG | -1.3 ± 0.32 |
| TRWCYSDFPMVKLFLLKFIT | 0.416 ± 0.8 |
| NCSSTIDFLFNLIHILKNF | inactive |
| DKANTRGGLRCYKMHQFAFV | 1.15 ± 0.21 |
| FKILCFSHGNNRM | 2.07 ± 0.19 |
| GLLLGMVFFCGSSTTNMGGI | 5.902 ± 0.051 |
| VTICIGVAFYVFCTSTSNCM | 5.242 ± 0.039 |
| FFWYWYASYEHARTSYSIRV | inactive |
| SHILSNVTYGLADVAFCACS | 7.542 ± 0.067 |
| SPIPFPYMYVYSMWCDTLTR | 0.505 ± 0.3 |
| SITFFKNAFVAIHIAR | inactive |
| LALNLQNCTRGGFTILTVS | inactive |
| FLSWCFW | 0.841 ± 0.42 |
| NYEGGCGVNGVMSVPAVRNP | 0.082 ± 1 |
| NASPFSHKYHEWFEVEGSSI | 0.108 ± 0.65 |
| HRSLIIF | 1.97 ± 0.19 |
| VRISAMVITV | -0.684 ± 0.55 |
| FLRWRDKWHG | 0.861 ± 0.29 |
| SRDCVRDLSVMCSLWKWFPV | -0.394 ± 1.1 |
| LVVSI | -0.876 ± 0.78 |
| QNYARL | -1.22 ± 1.1 |
| GGWNLDYVMRVYTRRLCNAS | 1.17 ± 0.41 |
| MLTFF | -0.409 ± 0.76 |
| TSFHYCCSR | 6.146 ± 0.03 |

| Substance | amyloid nucleation score |
| --- | --- |
| IEPKHWIYTSGGLTRGRLYG | 0.073 ± 1.1 |
| KSRISMPPSVLLDYGLAHNA | -0.598 ± 0.63 |
| FYRLLWSRNCTEVR | -1.43 ± 0.75 |
| HFMIVSLDGNHVMTTAAGVA | 0.233 ± 0.43 |
| LLYCCLRWMDSIQGLRPAFE | 1.1 ± 0.61 |
| AMSSA | 0.906 ± 0.52 |
| LSYNQD | -0.581 ± 0.64 |
| NILNFMDS | -0.603 ± 1.1 |
| VWMHMSGSIIKSWFLVRCFS | -0.506 ± 0.38 |
| ERGGIYWHVGRFSPDSEVTF | -0.27 ± 0.76 |
| HHFTFQAAYFRNIPLESADE | 0.906 ± 0.23 |
| EALMSSTIYYVPCSRHLIMF | -0.576 ± 0.63 |
| RFVYMDIRDMAGWTPLYVYP | -1.23 ± 1 |
| EDIIIVQFVV | 0.424 ± 0.24 |
| FMRMGTFYSDAVCMLYVSKR | 1.28 ± 0.23 |
| FAMRTSKKVSRTTAGGTDPF | -0.696 ± 0.54 |
| FIIDWSVKFGICSICLAT | 5.448 ± 0.042 |
| VLPYSRVSTS | 0.007 ± 0.28 |
| WSRMLFGECRSGKLRLPMPR | 3.73 ± 0.099 |
| ASNAWDRLGSVPGFSRGRLR | -0.308 ± 0.48 |
| RSQTSWLKDLWQRSLTSDCS | 4.62 ± 0.059 |
| AFVSYLCCGMYRVANSKSEG | 9.903 ± 0.058 |
| HSKGHILLTSNSNVFRLGRS | 0.166 ± 0.62 |
| FFSDVIRFWNKHTCKINLLR | -1.33 ± 1 |
| VGVVLFFFVLCYWVKT | -0.79 ± 0.41 |

| Substance | amyloid nucleation score |
| --- | --- |
| HTVTKVTLRLVCTMGCFKMM | 0.135 ± 0.65 |
| SYAYVSKMYVKYCQLKFI | -0.921 ± 0.78 |
| KSTLANHFTVLIGDTADLHG | inactive |
| CNSCSP | 0.811 ± 0.67 |
| YNQTVCDFLGKRLWGDVWRS | 0.26 ± 0.36 |
| RDGKDRAYCGW | 0.483 ± 0.5 |
| FSFYECLRGFFSNVDARCQV | 1.51 ± 0.11 |
| LCMCLRNMLSPAMVVTSNPP | 0.737 ± 0.2 |
| MLRFFCADWCSLGVCFTLGV | -0.137 ± 1.1 |
| KASHSVTRSLSVAYI | -0.714 ± 0.38 |
| VGHSIEALELTPIVVRYTYL | -0.341 ± 0.45 |
| TIGTVMNSLSHFLRPAR | 1.15 ± 0.21 |
| AQTSWNILFAKS | -0.501 ± 0.64 |
| NCVHRDNWE | inactive |
| LWFLYSAVTFTR | -0.856 ± 0.76 |
| LATKTLSMSLESICRNTVAF | inactive |
| HVLTAGNHVGSVMNWHANEM | inactive |
| KYVIR | -0.606 ± 1.1 |
| SSQFR | 0.705 ± 0.44 |
| WLMTYFNISSGFKSVTWVES | 3.69 ± 0.11 |
| SYSFRVVDWVYILTYLRKFE | 1.65 ± 0.33 |
| FHPVWSLRKLFDCPDWTLAR | 1.23 ± 0.12 |
| TCNSGRYSRAACAWWN | -0.114 ± 0.45 |
| YVVYMVFGR | 6.323 ± 0.055 |
| HHIRSFVETGGDTWWGRCSR | 1.05 ± 0.21 |

| Substance | amyloid nucleation score |
| --- | --- |
| HTDSLLWIPRVHFCVFF | inactive |
| PEQAVFTNNKYIYEVWLTTK | inactive |
| RFRGGSKSGLYFIVCISDVW | -0.758 ± 0.44 |
| ICFYLLHDRIHHSWD | 5.3 ± 0.096 |
| SFVTTKSSFL | -0.205 ± 0.74 |
| TTIFYKPLQCLLGLFFYP | -0.623 ± 1 |
| KLPLFTSMCCTGHFPPITPP | 0.409 ± 0.8 |
| YRYAASVPKCNTGSRDVAQT | 0.942 ± 0.35 |
| SLFRVKGAVLEVLVPRMLLY | 0.51 ± 0.41 |
| VNVYLFYYYPHSSHCYIF | 7.658 ± 0.056 |
| IDDVEGPVAPFGIATVQDQP | 1.51 ± 0.46 |
| FTGYRAISASLGTYCLKSCG | -0.245 ± 0.76 |
| VLMKGRDPSVSGLKIEYLGN | 0.193 ± 0.19 |
| AYHRWSTVLWILTYWTLRMC | 0.053 ± 1.1 |
| YFDSEPCLHFPCLVEGFRGW | -0.54 ± 1.1 |
| IFHVIVWLFEDAFVQVQNYR | 4.29 ± 0.078 |
| GSLLDVTHRRKVLSKSMRGL | 0.016 ± 0.35 |
| NQFVVMDQVLVMWGCFDLTR | 0.417 ± 0.46 |
| YNMMLSVWDSYVLLVECVME | -0.801 ± 0.31 |
| RVRDYSYGGSQRLGGYMLG | -0.64 ± 0.61 |
| DGINLDICCCNTDKLNIDRI | inactive |
| MPQSYFLGSRIKRFKKSRLV | 0.496 ± 0.37 |
| FMFLEKRVGNVGRYFHEYIG | inactive |
| LLGLSGKYWIRGSKNSIFVW | 0.157 ± 0.39 |
| MGLPSIF | 5.89 ± 0.092 |

| Substance | amyloid nucleation score |
| --- | --- |
| SNGCRRALL | inactive |
| HSVLEYFVTLCSNFLLWWVL | -0.192 ± 0.65 |
| LEVYVLFTVTYAVMRMNMDG | 0.302 ± 0.56 |
| LFNAVGLATV | 0.33 ± 0.74 |
| VFQIHYMVGNVVCTWSWPNV | 4.27 ± 0.056 |
| YFSSQLDLRRIMLLLSRYV | 0.721 ± 0.54 |
| TCICEVHTPTSSMISPSMSF | -1.51 ± 0.75 |
| SSADMQRY | -0.383 ± 0.48 |
| TGLTLVV | -0.094 ± 1 |
| GIVVSIMHGIDSYGAIY | -0.395 ± 0.39 |
| CHFSYKECRSAVRMLQYNGA | 2.54 ± 0.13 |
| SIMGYGFDVRCELCDVTGGW | -0.079 ± 0.53 |
| LLFKMAYRPLWHDNNMMTCM | 0.112 ± 0.79 |
| CKAIFFLLDPPTFIYRGSSC | 0.079 ± 0.57 |
| MRHSRHFVQYGWFDCGQSGS | 1.02 ± 0.29 |
| VSRDLEVH | -0.001 ± 0.31 |
| IGSVDDLNLKRICNDLDTP | 0.182 ± 0.79 |
| EESFYTTPLSVFCVNLRYIV | -0.383 ± 1.1 |
| GSTKFSRDERIAEGGNRGNK | -0.007 ± 0.3 |
| VMIIFLDNKRYGKAPNCGRM | 7.263 ± 0.07 |
| GCLRGIGIGGCVGCLRRILF | inactive |
| YMLWGWFFLNGFYTVIGIVP | inactive |
| SLFDFAVFNMNYESNACISR | 0.451 ± 0.27 |
| PRVGRRGSLRKCPWLLWYVL | 0.052 ± 0.45 |
| VNWFRLWRTSQLLGRMMLCL | 0.427 ± 0.56 |

| Substance | amyloid nucleation score |
| --- | --- |
| IYVPIGATQ | -1.26 ± 0.78 |
| VVDVVIGYWGRVMSDGCVAG | 0.816 ± 0.24 |
| TLHNYCYPMIRSCGQSPGRF | 0.208 ± 1.1 |
| HIWTEVFIYVCSWRLYTTRV | -1.48 ± 0.64 |
| CFTKDMLSDNCVSV | -0.845 ± 1 |
| PFHPICVYKRPFLCPE | inactive |
| RIDILGVTRWN | 0.633 ± 0.3 |
| ERTMF | 0.396 ± 0.3 |
| DHLGWHEVTVSLELSFFYRV | 4.83 ± 0.11 |
| WDSDRSYVLSLFADVPLAKC | 0.035 ± 1 |
| SHCGHRSATGVLSPLQTKGH | -0.159 ± 0.54 |
| IFKSHIPW | -1.22 ± 0.48 |
| RMLCLTSG | -0.59 ± 0.63 |
| CIFFPRGSNFFLFQMCGLSF | 3.83 ± 0.097 |
| YRKHRLLH | -0.893 ± 0.76 |
| DAWYMDFLSCACWIHWR | 0.871 ± 0.45 |
| RNRAENV | -0.36 ± 0.76 |
| YSHGEVCCWSCVMWVKHFMR | 1.47 ± 0.33 |
| YIWYCRMPTSSNTVSNL | inactive |
| IKVSFRRTGGLLHLCKWLTC | -0.5 ± 0.33 |
| EKFESERISFRAMGQGEVLR | 4.61 ± 0.079 |
| FGISSNATRDWRLFDHRAVG | 0.637 ± 0.47 |
| PVHSAVATVLTLVNGKIGGA | 1.24 ± 0.48 |
| VRAQKRSWGQGSL | 1.23 ± 0.14 |
| YTPHYLQCRLFCIPLRLNRS | -1.09 ± 0.49 |

| Substance | amyloid nucleation score |
| --- | --- |
| YGFGRHKNGAAMPTMYFAMS | -0.014 ± 0.41 |
| VLNRGGETAYTSMFDVYYI | -0.097 ± 0.63 |
| FSEYWVLSELVMVNKGVIWM | -0.865 ± 0.36 |
| IVSLLLRQSQ | 4.41 ± 0.061 |
| WYKKATNSVLANVGQDFVVK | -0.41 ± 0.36 |
| VLYSFSGVTPWHKYPCNCV | 0.256 ± 0.46 |
| DRGECYDLIGLCHSPVCCYP | -0.038 ± 0.42 |
| YIGVIT | 5.38 ± 0.1 |
| VDLGMPSLWRSDGASPGGFF | 0.277 ± 0.49 |
| EGGLYNCYADTPTKVW | -1.07 ± 0.74 |
| FILDAVGNFFCFVRHTTPQV | 0.106 ± 1 |
| RVTHAFCSSINGTNANYPRR | 2.54 ± 0.097 |
| DNLSGMIPTKTVDSSRP | 0.611 ± 0.81 |
| GLYVLYDNINWDERTRALSG | -0.728 ± 0.48 |
| DDIIISPVPDHE | inactive |
| FYHISYGERKRGGLC | inactive |
| SMISWATMVSRRDYLYMCV | -0.216 ± 0.45 |
| SNVDVFVTKMWRATQSCFRL | 3.67 ± 0.12 |
| LFIDLEMLFSPRN | 5.471 ± 0.048 |
| MAILYVVGWFVP | 0.148 ± 0.28 |
